Test results taken from US20020160957A1.
No end group written: not given here. *: point of attachment. 125I = [125I]*

Molecular target: cell surface binding site for EMAP II N-terminal peptides on human mononuclear phagocytes (MPs); ≈73 kDa MP surface polypeptide
Assay: radioligand binding on human MPs, 4 C, one-site model

B1: ^125I-… (peptide)
peptide: RIGRIVTAKY(125I)
For B1, the Kd was 0.19 nM and the N (molecules of peptide bound per cell) (molecules of peptide bound per cell) was 8300.
